According to the supplement of paper PMC9112550, “Optimization of the antimicrobial peptide Bac7 by deep mutational scanning” (BMC Biology, 2022):

The sequences below were run on Escherichia coli TOP10 (assay: shrunken log2 fold change of peptide-encoding DNA abundance (4.5 h post-induction vs induction); higher = less antimicrobial activity (less host growth inhibition)). Conditions: time post-induction: 4.5 h; library: site-saturation at positions 5, 18, 19, 20.
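Also: peptides expressed intracellularly from a pBAD plasmid library in pooled LB shake-flask culture, induced with 0.3% L-arabinose, DNA abundance read by NGS, three biological replicates, DESeq2 with apeglm shrinkage.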

Sequence | shrunken log2 fold change
RRIRQRPPRLPRPRPRPSKSPRP | -0.332
RRIRERPPRLPRPRPRPLHHPRP | -0.458
RRIRNRPPRLPRPRPRPEYLPRP | 0.0183
RRIRCRPPRLPRPRPRPWHLPRP | -0.221
RRIRVRPPRLPRPRPRPFHQPRP | 0.032
RRIRMRPPRLPRPRPRPYQCPRP | -0.118
RRIRVRPPRLPRPRPRPDSMPRP | -0.103
RRIRHRPPRLPRPRPRPATEPRP | 0.29
RRIRSRPPRLPRPRPRPERKPRP | -0.0872
RRIRQRPPRLPRPRPRPICKPRP | -0.00411
RRIRPRPPRLPRPRPRPLDIPRP | -0.408
RRIRWRPPRLPRPRPRPFTLPRP | 3.06
RRIRERPPRLPRPRPRPDLGPRP | -0.0853
RRIRIRPPRLPRPRPRPKESPRP | -0.258
RRIRNRPPRLPRPRPRPKFGPRP | 0.0252
RRIRRRPPRLPRPRPRPAIFPRP | -0.0696
RRIRCRPPRLPRPRPRPKSQPRP | 0.276
RRIRYRPPRLPRPRPRPHVTPRP | -0.147
RRIRIRPPRLPRPRPRPARTPRP | 0.0599
RRIRLRPPRLPRPRPRPIPHPRP | -0.332
RRIRKRPPRLPRPRPRPTEHPRP | 0.279
RRIRHRPPRLPRPRPRPWIMPRP | -0.597
RRIRQRPPRLPRPRPRPEREPRP | 0.0841
RRIRIRPPRLPRPRPRPHLNPRP | -0.852
RRIRYRPPRLPRPRPRPGPTPRP | -0.0479

Sequence | shrunken log2 fold change
RRIRARPPRLPRPRPRPYGHPRP | -0.095
RRIRRRPPRLPRPRPRPANCPRP | 0.00326
RRIRERPPRLPRPRPRPMTQPRP | 0.00826
RRIRERPPRLPRPRPRPASCPRP | -0.211
RRIRNRPPRLPRPRPRPETFPRP | 0.00884
RRIRPRPPRLPRPRPRPCCPPRP | -0.377
RRIRERPPRLPRPRPRPLCTPRP | -0.364
RRIRYRPPRLPRPRPRPTHYPRP | -0.867
RRIRERPPRLPRPRPRPDTVPRP | 0.37
RRIRPRPPRLPRPRPRPYEYPRP | -0.314
RRIRRRPPRLPRPRPRPTVHPRP | 0.231
RRIRNRPPRLPRPRPRPRMVPRP | -0.289
RRIRIRPPRLPRPRPRPLHIPRP | -1.21
RRIRKRPPRLPRPRPRPPQFPRP | 0.127
RRIRCRPPRLPRPRPRPFCVPRP | -0.248
RRIRPRPPRLPRPRPRPNRMPRP | -0.138
RRIRERPPRLPRPRPRPEILPRP | -0.159
RRIRQRPPRLPRPRPRPNVSPRP | 0.00422
RRIRHRPPRLPRPRPRPAMKPRP | 0.0279
RRIRKRPPRLPRPRPRPFIIPRP | -0.268
RRIRNRPPRLPRPRPRPMDLPRP | 0.00408
RRIRPRPPRLPRPRPRPAEMPRP | 0.189
RRIRDRPPRLPRPRPRPDPIPRP | 0.278
RRIRTRPPRLPRPRPRPGVWPRP | 0.631
RRIRERPPRLPRPRPRPNWLPRP | -0.00723

Sequence | shrunken log2 fold change
RRIRFRPPRLPRPRPRPYTSPRP | -0.256
RRIRLRPPRLPRPRPRPTGQPRP | 0.107
RRIRFRPPRLPRPRPRPILRPRP | -0.156
RRIRRRPPRLPRPRPRPPTGPRP | 0.625
RRIRSRPPRLPRPRPRPKRKPRP | 0.458
RRIRQRPPRLPRPRPRPFTHPRP | -0.0618
RRIRGRPPRLPRPRPRPDSYPRP | 0.0941
RRIRARPPRLPRPRPRPWYVPRP | -0.0927
RRIRGRPPRLPRPRPRPKKDPRP | 0.708
RRIRCRPPRLPRPRPRPPFTPRP | -0.15
RRIRSRPPRLPRPRPRPGKVPRP | -0.0472
RRIRKRPPRLPRPRPRPMHCPRP | 3.88
RRIRKRPPRLPRPRPRPLVRPRP | 0.114
RRIRNRPPRLPRPRPRPFKFPRP | -0.423
RRIRCRPPRLPRPRPRPSAAPRP | 0.386
RRIRYRPPRLPRPRPRPSDFPRP | -1.03
RRIRMRPPRLPRPRPRPKEQPRP | 1.26
RRIRGRPPRLPRPRPRPPRWPRP | 1.17
RRIRPRPPRLPRPRPRPEPGPRP | 0.27
RRIRSRPPRLPRPRPRPPMYPRP | -0.549
RRIRLRPPRLPRPRPRPVRGPRP | 0.682
RRIRNRPPRLPRPRPRPPKVPRP | 0.28
RRIRDRPPRLPRPRPRPDDMPRP | 0.155
RRIRIRPPRLPRPRPRPWFFPRP | -0.198
RRIRRRPPRLPRPRPRPHRYPRP | -0.0438

Sequence | shrunken log2 fold change
RRIRARPPRLPRPRPRPYPMPRP | 0.019
RRIRHRPPRLPRPRPRPTGWPRP | 0.841
RRIRHRPPRLPRPRPRPLHKPRP | -0.294
RRIRDRPPRLPRPRPRPPHNPRP | -0.103
RRIRDRPPRLPRPRPRPKCQPRP | -0.00187
RRIRFRPPRLPRPRPRPKMAPRP | -0.0582
RRIRYRPPRLPRPRPRPVHTPRP | -0.562
RRIRQRPPRLPRPRPRPHKKPRP | -0.215
RRIRWRPPRLPRPRPRPWIVPRP | -0.337
RRIRCRPPRLPRPRPRPSPKPRP | -0.326
RRIRGRPPRLPRPRPRPVHPPRP | 2.04
RRIRIRPPRLPRPRPRPQCEPRP | -0.0436
RRIRVRPPRLPRPRPRPNNLPRP | -0.534
RRIRARPPRLPRPRPRPQRHPRP | 0.212
RRIRHRPPRLPRPRPRPICMPRP | -0.00804
RRIRLRPPRLPRPRPRPQHFPRP | -0.343
RRIRDRPPRLPRPRPRPMSHPRP | -0.046
RRIRARPPRLPRPRPRPQTTPRP | 0.768
RRIRLRPPRLPRPRPRPYIWPRP | -0.017
RRIRKRPPRLPRPRPRPKMAPRP | 0.169
RRIRHRPPRLPRPRPRPDRCPRP | -0.205
RRIRWRPPRLPRPRPRPITRPRP | -0.0637
RRIRMRPPRLPRPRPRPGWTPRP | 0.185
RRIRYRPPRLPRPRPRPGSDPRP | -0.898
RRIRGRPPRLPRPRPRPEYRPRP | 0.354

Sequence | shrunken log2 fold change
RRIRWRPPRLPRPRPRPVVMPRP | -0.0601
RRIRRRPPRLPRPRPRPPTHPRP | 0.622
RRIRNRPPRLPRPRPRPSLEPRP | -0.208
RRIRPRPPRLPRPRPRPMFLPRP | -0.269
RRIRMRPPRLPRPRPRPDVFPRP | 0.387
RRIRHRPPRLPRPRPRPGKRPRP | -0.0157
RRIRYRPPRLPRPRPRPTQRPRP | -0.164
RRIRIRPPRLPRPRPRPAINPRP | -0.606
RRIRERPPRLPRPRPRPYLTPRP | -0.424
RRIRKRPPRLPRPRPRPATLPRP | 0.312
RRIRQRPPRLPRPRPRPGMFPRP | 0.00926
RRIRMRPPRLPRPRPRPGVQPRP | 0.16
RRIRERPPRLPRPRPRPVFPPRP | 0.242
RRIRRRPPRLPRPRPRPWNRPRP | -0.049
RRIRQRPPRLPRPRPRPMQLPRP | -0.15
RRIRARPPRLPRPRPRPDHYPRP | -0.287
RRIRYRPPRLPRPRPRPFFRPRP | -0.019
RRIRNRPPRLPRPRPRPMCSPRP | -0.0636
RRIRNRPPRLPRPRPRPHHDPRP | -1.01
RRIRTRPPRLPRPRPRPYEQPRP | -0.0291
RRIRDRPPRLPRPRPRPAQGPRP | 0.00228
RRIRCRPPRLPRPRPRPEPPPRP | 2.06
RRIRQRPPRLPRPRPRPRKTPRP | 0.00489
RRIRWRPPRLPRPRPRPPCKPRP | -0.0735
RRIRHRPPRLPRPRPRPEIEPRP | -0.0966

Sequence | shrunken log2 fold change
RRIRCRPPRLPRPRPRPGIWPRP | 0.485
RRIRMRPPRLPRPRPRPQSMPRP | 0.143
RRIRVRPPRLPRPRPRPQHCPRP | 0.0856
RRIRWRPPRLPRPRPRPPQCPRP | 0.292
RRIRFRPPRLPRPRPRPTDMPRP | 0.0617
RRIRRRPPRLPRPRPRPVAEPRP | 0.663
RRIRTRPPRLPRPRPRPRYPPRP | -0.516
RRIRIRPPRLPRPRPRPMIGPRP | -0.477
RRIRHRPPRLPRPRPRPCVQPRP | -0.131
RRIRTRPPRLPRPRPRPRHMPRP | -0.115
RRIRQRPPRLPRPRPRPSRRPRP | 0.0103
RRIRLRPPRLPRPRPRPPMCPRP | 0.202
RRIRGRPPRLPRPRPRPQHVPRP | -0.12
RRIRLRPPRLPRPRPRPIETPRP | -0.0258
RRIRFRPPRLPRPRPRPVQFPRP | -0.652
RRIRGRPPRLPRPRPRPMPRPRP | 1.03
RRIRFRPPRLPRPRPRPKDIPRP | -0.676
RRIRGRPPRLPRPRPRPNRLPRP | 0.104
RRIRTRPPRLPRPRPRPHMMPRP | -0.586
RRIRWRPPRLPRPRPRPNRTPRP | 0.121
RRIRERPPRLPRPRPRPWTAPRP | -0.478
RRIRNRPPRLPRPRPRPWPGPRP | 0.281
RRIRPRPPRLPRPRPRPCGIPRP | -0.0938
RRIRMRPPRLPRPRPRPEGTPRP | 0.0716
RRIRIRPPRLPRPRPRPFIDPRP | -0.205
